In experiment [1] the target is T1, Recombinant human VEGF165 (human, UniProt P15692-4, strain). The experiment in a line: cell-based or functional assay.
Target sequence in this assay (P15692 whole entry, looked up, change not shown, the tested form may be a part): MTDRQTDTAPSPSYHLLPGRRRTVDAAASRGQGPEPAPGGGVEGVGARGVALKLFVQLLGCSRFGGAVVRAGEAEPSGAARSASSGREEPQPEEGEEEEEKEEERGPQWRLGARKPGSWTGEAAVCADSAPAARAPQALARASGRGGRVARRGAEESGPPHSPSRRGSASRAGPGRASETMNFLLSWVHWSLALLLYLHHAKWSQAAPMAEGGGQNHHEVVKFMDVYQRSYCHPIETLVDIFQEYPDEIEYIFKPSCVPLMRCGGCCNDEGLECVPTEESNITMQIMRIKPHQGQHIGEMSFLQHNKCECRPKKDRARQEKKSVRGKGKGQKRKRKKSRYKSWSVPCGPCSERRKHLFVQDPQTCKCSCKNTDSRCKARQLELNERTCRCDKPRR
Experiment [2] addresses T2, rabbit IgG Fc-hVEGF (human VEGF165) fusion protein, wild type (human, UniProt P15692-4).
T2 construct: also called Fc-VEGF; VEGF wild type; source: HEK-293E cells, transient transfection, cleared culture supernatant; not shown: Fc (rabbit IgG), N-terminal, kept
Briefly: ELISA; VEGF capture ELISA: Fc-VEGF supernatants captured on coated goat anti-rabbit IgG (H+L); hEBV321 at various concentrations, 1 hr at 37°C; detected by anti-human IgG alkaline phosphatase. The settings on record: one partner purified.

The target of experiment [3] is T1, Recombinant human VEGF165. Briefly: SPR; BIAcore 3000; antibodies immobilised on CM5 chips by amine coupling (about 600 RU); VEGF165 (R&D Systems) injected at 0.2 to 50 nM, 35 µl/min, 25°C, HBS-P (10 mM HEPES pH 7.4, 150 mM NaCl, 0.005% P20); 1:1 binding model, global fit. The note with it: both partners purified.
Experiment [4] addresses T1, Recombinant human VEGF165. Briefly: ELISA; direct competition ELISA: human VEGF-A165 coated (0.05 µg/ml); reference antibody (0.04 µg/ml) mixed with increasing concentration of competitor, 1 hr at room temperature; bound reference antibody detected by anti-rabbit IgG Fc secondary antibody, chemiluminescence. The note with it: both partners purified. For orientation: An ELISA detects its analyte on a solid surface through an enzyme-linked reagent.
Target sequence in this assay (P15692 whole entry, looked up, change not shown, the tested form may be a part): as above

Experiment [5] concerns the target T1, Recombinant human VEGF165. The experiment in a line: ELISA; VEGF/VEGFR-2 interaction ELISA: 5 µg/ml Fc-VEGFR-2 (ECD) coated; antibody pre-incubated 1 hour with recombinant human VEGF (0.5 µg/ml final) before transfer to the plate; bound VEGF detected by a mouse anti-VEGF165 monoclonal antibody; triplicates. The settings on record: both partners purified.
The target in experiment [6] is T1, Recombinant human VEGF165. Briefly: SPR; BIAcore 3000; antibodies immobilised on CM5 chips by amine coupling (about 600 RU); VEGF165 (R&D Systems) injected at 0.2 to 50 nM, 35 µl/min, 25°C, HBS-P (10 mM HEPES pH 7.4, 150 mM NaCl, 0.005% P20); 1:1 binding model, global fit. The note with it: both partners purified. This is another data set of the same source.
The target of experiment [7] is T1, Recombinant human VEGF165. Briefly: ELISA; VEGF/VEGFR-2 interaction ELISA: 5 µg/ml Fc-VEGFR-2 (ECD) coated; antibody pre-incubated 1 hour with recombinant human VEGF (0.5 µg/ml final) before transfer to the plate; bound VEGF detected by a mouse anti-VEGF165 monoclonal antibody; triplicates. The settings on record: both partners purified. The source holds these as a separate data set.

Experiment [8] concerns the target T1, Recombinant human VEGF165. The experiment in a line: ELISA; antigen binding ELISA with the antigen coated on a 96-well plate; paired H and L chains of the 15 antibodies; grades against background reading.
Target sequence in this assay (P15692 whole entry, looked up, change not shown, the tested form may be a part): as above

Where a chain is given by its changes, count along the chain named.

T2 sequence (P15692 other isoform, or with tags, fused parts or gaps): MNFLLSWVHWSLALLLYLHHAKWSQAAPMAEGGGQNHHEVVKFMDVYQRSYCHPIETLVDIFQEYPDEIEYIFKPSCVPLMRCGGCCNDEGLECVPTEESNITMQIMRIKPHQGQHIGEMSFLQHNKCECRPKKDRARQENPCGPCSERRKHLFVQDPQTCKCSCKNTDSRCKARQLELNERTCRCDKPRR

B1: humanized EBV321 (antibody, V domains shown)
VH: EVQLVESGGGLVKPGGSLRLSCAASGFSFSNNDVMCWVRQAPGKGLEWIGCIMTTDVVTEYANWAKSRFTVSRDSAKNSVYLQMNSLRAEDTAVYFCARDSVGSPLMSFDLWGPGTLVTVSS
VL: DIQMTQSPSSLSASVGDRVTINCQASQSIYNNNELSWYQQKPGKPPKLLIYRASTLASGVPSRFSGSGSGTDFTLTISSLQPEDVATYYCGGYKSYSNDGNGFGGGTKVEIK
notes: also called hEBV321; humanized anti-VEGF RabMAb; source: 293-6E cells, L and H chain plasmids co-transfected, purified (protein A)
As a reminder, the Kd is the free concentration of one partner at which half of the binding sites on the other are occupied at equilibrium, for simple one-to-one binding. The term koff denotes a measure of how fast the partners let go of each other. As a reminder, the kon is the rate constant with which the complex forms. What is called IC50 is the point on the concentration scale where inhibition reaches its midpoint. Take B1: in experiment [1], the “IC50 of inhibition of VEGF-stimulated HUVEC proliferation” value was found to be 8 pM. In addition, the binding result in experiment [2] is “binds”. Besides, in experiment [3], the equilibrium dissociation constant (Kd) worked out at 11.5 pM, the koff is 1.88e-05 s⁻¹ and the kon is 1.63e+06 M⁻¹ s⁻¹. Also, in experiment [4], the “inhibition of EBV321 binding to VEGF at 5 fold excess” value is 50%. Besides, in experiment [5], the half-inhibitory concentration (IC50) stood at 3200 pM. In experiment [6], the Kd stood at 11.9 pM.

B2: anti-VEGF RabMAb EBV321 (antibody, V domains shown)
VH: QSLEESGGDLVKPGASLTLSCTASGFSFSNNDVMCWVRQAPGKGLEWIGCIMTTDVVTEYANWAKSRFTVSKTSSSTVTLQLTSLTVADTATYFCARDSVGSPLMSFDLWGPGTLVTVSS
VL: LVMTQTPASVSAAVGGTVTINCQASQSVYGNNELSWYQQKPGQPPKLLIYRASTLASGVPSRFSGSGSGTQFTLTISGVQCADAATYYCGGYKSYSNDGNGFGGGTEVVVK
notes: also called parental EBV321; source: 293-6E cells, L and H chain plasmids co-transfected, purified (protein A)
Turning to B2, the “IC50 of inhibition of VEGF-stimulated HUVEC proliferation” value in experiment [1] came to 39 pM. In addition, in experiment [3], the Kd came out at 419 pM, the koff was found to be 0.00119 s⁻¹ and the kon turned out to be 2.85e+06 M⁻¹ s⁻¹. Also, the IC50 in experiment [5] is 4100 pM. Besides, the concentration for half-maximal inhibition (IC50) in experiment [7] worked out at 560 pM.

B3: heavy chain of EBV321 paired with light chain of EBV307 (antibody, V domains shown)
VH: B2 VH
VL: B2 VL with P44R, A82F, G90S, S96Y, N100S
Regarding B3, in experiment [8], the binding result was “binds”.

B4: heavy chain of EBV307 paired with light chain of EBV302 (antibody, V domains shown)
VH: B2 VH with L3V, D9G, A15G, S16T, S20T, A23V, E59A, K72R, S76T, L82V
VL: B2 VL with T19I, S27N, V28L, G30N, R51W, S64K, G90A, D98G
notes: also called 307H/302L
As to B4, the binding result in experiment [8] is listed as “binds”.

B5: anti-VEGF RabMAb EBV307 (antibody, V domains shown)
VH: B2 VH with L3V, D9G, A15G, S16T, S20T, A23V, E59A, K72R, S76T, L82V
VL: B2 VL with P44R, A82F, G90S, S96Y, N100S
notes: also called 307H/307L; source: 293-6E cells, L and H chain plasmids co-transfected, purified (protein A)
In the case of B5, the IC50 in experiment [7] was determined as 2620 pM.

B6: heavy chain of EBV307 paired with light chain of EBV321 (antibody, V domains shown)
VH: B2 VH with L3V, D9G, A15G, S16T, S20T, A23V, E59A, K72R, S76T, L82V
VL: B2 VL
notes: also called 307H/321L
For B6, the binding result in experiment [8] is listed as “binds”.

B7: anti-VEGF RabMAb EBV320 (antibody, V domains shown)
VH: B2 VH with S20T, D32A, S76T, L82M
VL: B2 VL with S27N, V28L, G30N, R51W, S64K, G90A
notes: also called 320H/320L; source: 293-6E cells, L and H chain plasmids co-transfected, purified (protein A)
For B7, the IC50 in experiment [7] was found to be 3320 pM.

B8: heavy chain of EBV320 paired with light chain of EBV307 (antibody, V domains shown)
VH: B2 VH with S20T, D32A, S76T, L82M
VL: B2 VL with P44R, A82F, G90S, S96Y, N100S
notes: also called 320H/307L
On to B8, for which, in experiment [8], the binding result is “binds”.

B9: heavy chain of EBV321 paired with light chain of EBV302 (antibody, V domains shown)
VH: B2 VH
VL: B2 VL with T19I, S27N, V28L, G30N, R51W, S64K, G90A, D98G
Turning to B9, in experiment [8], the binding result was “binds”.

B10: heavy chain of EBV320 paired with light chain of EBV321 (antibody, V domains shown)
VH: B2 VH with S20T, D32A, S76T, L82M
VL: B2 VL
notes: also called 320H/321L
For the molecule B10, in experiment [8], the binding result was “binds”.

B11: heavy chain of EBV321 paired with light chain of EBV320 (antibody, V domains shown)
VH: B2 VH
VL: B2 VL with S27N, V28L, G30N, R51W, S64K, G90A
Regarding B11, in experiment [8], the binding result is on record as “binds”.

B12: anti-VEGF RabMAb EBV302 (antibody, V domains shown)
VH: B2 VH with S20T, D32A, S76T, L82M
VL: B2 VL with T19I, S27N, V28L, G30N, R51W, S64K, G90A, D98G
notes: also called 302H/302L; source: 293-6E cells, L and H chain plasmids co-transfected, purified (protein A)
For B12, the IC50 in experiment [7] is 25200 pM.

B13: heavy chain of EBV307 paired with light chain of EBV320 (antibody, V domains shown)
VH: B2 VH with L3V, D9G, A15G, S16T, S20T, A23V, E59A, K72R, S76T, L82V
VL: B2 VL with S27N, V28L, G30N, R51W, S64K, G90A
notes: also called 307H/320L
Regarding B13, the binding result in experiment [8] is on record as “binds”.

B14: heavy chain of EBV302 paired with light chain of EBV321 (antibody, V domains shown)
VH: B2 VH with S20T, D32A, S76T, L82M
VL: B2 VL
notes: also called 302H/321L
Regarding B14, in experiment [8], the binding result is “binds”.

B15: heavy chain of EBV302 paired with light chain of EBV307 (antibody, V domains shown)
VH: B2 VH with S20T, D32A, S76T, L82M
VL: B2 VL with P44R, A82F, G90S, S96Y, N100S
notes: also called 302H/307L
Consider B15, for which, in experiment [8], the binding result is recorded as “binds”.

These data come from paper PMC2816707, “A Humanized Anti-VEGF Rabbit Monoclonal Antibody Inhibits Angiogenesis and Blocks Tumor Growth in Xenograft Models” (PLoS ONE, 2010).
